Experimental data published in patent publication US20230272054A1, “COMBINATION THERAPIES FOR THE TREATMENT AND PREVENTION OF BIOFILMS” (priority 2020, published 2023).
Entries after “also recorded” stand apart in the source; their conditions may differ. Where two headings read alike, the source gives them in different places.

What was measured:
[1] = tested on: HMGB1 full-length; details: CITED Xin et al., 2000; Table 1 lists under mHMGB1, p605 says full-length HMGB1; cited from earlier work
[2] = target: T1, HUNTHI, native histone-like protein HU (DNABII protein) of nontypeable Haemophilus influenzae (nontypeable Haemophilus influenzae …, UniProt P43722 1-90); assay: SPR (Biacore); mHMGB1 immobilised, HUNTHI injected; the text value differs from Table 1 (103)
T1 sequence: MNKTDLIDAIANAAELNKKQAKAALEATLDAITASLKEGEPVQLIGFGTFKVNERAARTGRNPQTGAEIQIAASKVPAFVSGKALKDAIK

[3] = target: T1, HUNTHI, native histone-like protein HU …
[4] = target: T2, IHFNTHI, native integration host factor (DNABII protein) of nontypeable Haemophilus influenzae (nontypeable Haemophilus influenzae …, UniProt P43723 1-96; P43724 1-94)
T2 sequence 1: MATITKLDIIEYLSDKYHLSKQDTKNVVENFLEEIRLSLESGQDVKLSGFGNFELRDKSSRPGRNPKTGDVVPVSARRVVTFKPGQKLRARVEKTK
T2 sequence 2: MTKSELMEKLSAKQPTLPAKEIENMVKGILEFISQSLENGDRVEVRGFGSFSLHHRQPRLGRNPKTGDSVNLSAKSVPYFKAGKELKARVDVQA

[5] = tested on: B. cenocepacia; assay: Murine model of lung infection by B. cenocepacia, bacterial burden; details: 0.2 nmol i.t. at 24 hpi; 72 hpi; α-EF-Tu labeling
Method: Intratracheal challenge of the murine lung with B. cenocepacia and treatment with HMGB1 isoforms: B. cenocepacia strain K56-2, was cultured in LB broth (Difco, Md.) at 37° C. overnight at 200 rpm. Bacterial concentration was adjusted before each experiment based on OD at 600 nm. C57BL/6 mice were infected intratracheally (i.t.) with 10^7 colony forming units (CFU) of B. cenocepacia. […] Animals were euthanized 24 or 48 hpi, and bronchoalveolar lavage (BAL) was collected with 1 ml of PBS plus 1 mM EDTA. […] The slides were permeabilized with 0.5% Triton X-100 for 10 minutes, blocked with 10% normal goat serum (Abcam) for 30 minutes and stained with a monoclonal antibody against E. coli Elongation Factor-Tu (α-EF-Tu; cross reacts with B. cenocepacia) (LSBio) overnight to label B. cenocepacia. The samples were then stained with goat α-mouse IgG Alexa Fluor 488 (Abcam) for 1 h at RT, mounted with fluoroshield media with DAPI (Abcam), visualized via the Nikon Eclipse Ti at 40× magnification (Nikon Instrument Inc. Americas) and analyzed by ImageJ software (NIH). To enumerate bacterial burden, the animals were euthanized 18 or 72 hpi, bronchoalveolar lavage was collected with 1 ml of PBS plus 1 mM EDTA, an aliquot of BAL was serially diluted and plated on LB agar. […] Neither animals nor samples were excluded from evaluation in any study.

[6] = tested on: pro-inflammatory and anti-inflammatory cytokines; assay: Quantitation of cytokines in middle ear fluids (cytometric bead array); format: in vivo, chinchilla (Chinchilla lanigera); details: six days after NTHI challenge, one day after completion of treatment
Method: Quantitation of cytokines in middle ear fluids: To quantitate cytokines in middle ear fluids (MEF), a BD™ Cytometric Bead Array was performed with fluids collected at the time of animal sacrifice. With BD™ human-specific Flex Sets, each MEF was individually examined for relative quantity of IL-1β, IL-4, IL-6, IL-8, IL-10, IL12-p70, IL-13, IL-17A, TNF or IFNγ according to manufacturer's instructions. MEFs from each animal were assayed individually. Data were captured on a BD ACCURI™ C6 cytometer (BD Biosciences) and analyzed with FlowJo software (FlowJo, LLC). The concentration of cytokines in each MEF was determined using a standard curve and calculated using GraphPad Prism software.

[7] = Inflammatory cell recruitment into lungs of B. cenocepacia-challenged mice (H&E, flow cytometry of BAL); format: in vivo, C57BL/6 mice; details: B. cenocepacia-challenged mice, 0.2 nmol, 72 hpi
[8] = tested on: neutrophils in BAL; assay: as above; format: in vivo, C57BL/6 mice; details: B. cenocepacia-infected and simultaneously treated, 0.2 nmol, 18 hpi
[9] = tested on: UPEC biofilms; assay: Disruption of 24 h UPEC biofilms in vitro (CLSM, COMSTAT average thickness); details: mHMGB1 200 nM, 16 h
[10] = tested on: biofilms formed by UPEC, B. cenocepacia, NTHI, Enterobacter spp, S. aureus, K. pneumoniae, A. baumanii, P. aeruginosa, E. faecium; assay: Disruption of 24 h bacterial biofilms in vitro by HMGB1 isoforms (LIVE/DEAD stain, CLSM, COMSTAT average thickness); details: 24 h biofilms of nine pathogens; 200 nM protein, 16 h (S. aureus 800 nM rHMGB1; E. faecium 800 nM, 1 h)
[11] = tested on: NTHI biofilms; assay: Disruption of NTHI biofilms in the middle ears of chinchillas with experimental otitis media; format: in vivo, chinchilla (Chinchilla lanigera); details: 200 nM mHMGB1 and/or 342 nM Fabs
Method: As a negative control, an equivalent volume of sterile saline was delivered. One day after receipt of the second therapeutic dose, all animals were sacrificed and NTHI within the middle ear biofilms was enumerated. The relative amount of mucosal biofilm and mucosal inflammation were also qualitatively assessed.
First, effectiveness of single treatment was evaluated. To this end, a subset of animals in each cohort was sacrificed one day after receipt of a single therapeutic dose (FIG. 16H) whereas the remaining animals in each cohort were sacrificed 24 h after receipt of a second treatment.
Chinchilla model of experimental otitis media (OM): Adult chinchillas (Chinchilla lanigera) were obtained from Rauscher's Chinchilla Ranch, LLC. These outbred, non-specific pathogen-free animals were randomly divided into cohorts based on body weight and both male and female animals were enrolled. […] A concentration of 342 nM was based on prior studies wherein 5 μg intact IgG per 0.1 ml volume was injected into the middle ears of chinchillas (Goodman et al., 2011; Novotny et al., 2016; and Novotny et al., 2019).
Disruption of NTHI biofilms resident within the middle ears of chinchillas with experimental OM: Both middle ears of each animal were challenged with 1000 CFU NTHI strain 86-028NP by direct injection to induce experimental OM. Four days later, NTHI mucosal biofilms fill >50% of the middle ear (Novotny et al., 2011). […] To determine the outcome of treatment, animals were sacrificed one day after completion of antibody therapy, images of mucosal biofilms captured with a Zeiss SV6 dissecting microscope, then mucosal biofilms and middle ear mucosa collected, homogenized and plated on to chocolate agar to semi-quantitate the non-planktonic bacterial load within the middle ear (Goodman et al., 2011). […] As an additional assessment, the amount of biofilm in each middle ear was qualitatively determined. […] For both quantitation of bacterial load and qualitative assessment of mucosal biofilm, each middle ear was considered independent.

[12] = tested on: E. faecium biofilms; assay: Disruption of 24 h E. faecium biofilms in vitro (CLSM, COMSTAT average thickness); details: 24 h biofilms, 1 h incubation; non-bactericidal dose
[13] = tested on: eDNA lattice within K. pneumoniae biofilms; assay: Visualization of eDNA lattice structure within K. pneumoniae biofilms (immunofluorescence, CLSM); format: cell-based, Klebsiella pneumoniae; details: 24 h K. pneumoniae biofilms, 200 nM protein, 16 h
Description: Per the model as disclosed herein, HMGB1 would compete with DNABII proteins, wherein instead of stabilization, HMGB1 would de-stabilize these HJ-like structures and consequently disrupt the biofilm.

[14] = tested on: HJ DNA; assay: Electrophoretic mobility shift assay (EMSA), binding to HJ DNA; details: 20 nM 6-carboxyfluorescein HJ DNA, 50-500 nM protein, non-denaturing PAGE
Method: Arrows indicate the HJ DNA-protein complex.
FIG. 11A provides that NEM-modified rHMGB1 was confirmed by triton acetic acid urea gel (TAU gel). […] Arrows indicate the HJ DNA-protein complex.
Electrophoretic mobility shift assay (EMSA): EMSA was performed as previously described (Devaraj et al., 2019).

[15] = tested on: Human neutrophils; assay: NET formation by neutrophils incubated with HMGB1 isoforms (CLSM); format: cell-based; details: 200 nM protein, 3.5 h
Method: Neutrophils were fixed, then labeled as described above to visualize the NETs.
Visualization of NETs structure upon incubation of neutrophils with various isoforms of HMGB1: Human neutrophils were isolated from blood using the EASYSEP™ isolation kit (Stemcell Technologies Inc.). […] NETs were fixed in formalin, blocked with 10% normal goat serum (Life Technologies), and labeled with α-dsDNA monoclonal antibody (1 μg), and α-neutrophil elastase polyclonal antibody (1 μg) or naive rabbit and mouse isotype controls (1 μg) in 200 μl PBS for 16 h hours at 4° C. NETs were washed with PBS and incubated for 1 h with 1:200 dilution goat α-rabbit IgG conjugated to ALEXAFLUOR® 594, goat α-mouse IgG conjugated to ALEXAFLUOR® 488, and 1:500 dilution wheat germ agglutinin conjugated to ALEXAFLUOR® 350 (PMN membrane stain). NETs were imaged with a Zeiss LSM 800 confocal microscope (Carl Zeiss Inc.) and rendered with Zeiss Zen software.

HJ DNA (cited)
Kd [1]: 10 nM

B1: mHMGB1 (C45S), recombinant human HMGB1 with an engineered single amino acid mutation C45S (other)
chain: MGKGDPKKPRGKMSSYAFFVQTCREEHKKKHPDASVNFSEFSKKSSERWKTMSAKEKGKFEDMAKADKARYEREMKTYIPPKGETKKKFKDPNAPKRPPSAFFLFCSEYRPKIKGEHPGLSIGDVAKKLGEMWNNTAADDKQPYEKKAAKLKEKYEKDIAAYRAKGKPDAAKKGVVKAEKSKKKKEEEEGEEDEEDEEEEEDEEDEDEEEDDDDE
notes: also called modified HMGB1
Kd [2]: 104 nM
Kd [3]: 103 nM
Kd [4]: 579 nM

B2: mHMGB1: recombinant human HMGB1 with engineered single amino acid mutation C45S, SEQ ID NO: 52 (protein)
chain: B1 chain
modifications: mHMGB1 (C45S)
B. cenocepacia stained within the lung tissue [5]: significantly reduced bacterial load
IL-10 in middle ear fluids [6]: significantly elevated concentration; also recorded: statistically significant increase
infiltration of inflammatory cells into lungs (H&E) [7]: no signs of inflammation
neutrophils in BAL (flow cytometry) [8]: eliminated the pro-inflammatory activity; also recorded: significant reduction of neutrophils in BAL compared to those treated with rHMGB1
UPEC biofilm disruption in the presence of CbpA (negative control) [9]: could still disrupt UPEC biofilms
UPEC biofilm disruption in the presence of exogenously added RuvA ([9]; competitor dose-dependent): lost in the presence of competitors; also recorded: unable to disrupt biofilms formed by UPEC
biofilm average thickness compared to control [10]: significantly disrupted bacterial biofilms; also recorded: fully retained the anti-biofilm activity
middle ears that cleared NTHI / culture-negative ([11]; 24 h after one dose, 6 middle ears): 50%
NTHI in middle ears after two doses ([11]; 24 h after second dose): further reduced
relative amount of remaining NTHI mucosal biofilm ([11]; one or two doses): highly effective
dose required to achieve a similar reduction in biofilm average thickness, E. faecium [12]: required a higher dose
biofilm bacteria (FilmTracer FM 4-64) [13]: substantial reduction in biofilm bacteria
web-like eDNA lattice structure within biofilm [13]: disruption of the web-like structure; also recorded: notably disrupted
binding to HJ DNA (EMSA) [14]: maintained its ability to bind HJ DNA; also recorded: retained its ability to bind to HJ DNA
induction of NET formation by neutrophils [15]: intertwined NETs specifically formed; also recorded: more strongly induced NET formation
